What is called Kd is the constant that tells how readily two partners part at equilibrium. Low values mean higher affinity, high ones lower affinity.

This test deals with Aeropyrum pernix KvAP voltage-dependent potassium channel (Aeropyrum pernix) (UniProt Q9YDF8). In words: inhibition of KvAP channel currents by CTX, channels in planar lipid bilayers.
Chain of Aeropyrum pernix KvAP voltage-dependent potassium channel (Aeropyrum pernix) (Q9YDF8 14-295): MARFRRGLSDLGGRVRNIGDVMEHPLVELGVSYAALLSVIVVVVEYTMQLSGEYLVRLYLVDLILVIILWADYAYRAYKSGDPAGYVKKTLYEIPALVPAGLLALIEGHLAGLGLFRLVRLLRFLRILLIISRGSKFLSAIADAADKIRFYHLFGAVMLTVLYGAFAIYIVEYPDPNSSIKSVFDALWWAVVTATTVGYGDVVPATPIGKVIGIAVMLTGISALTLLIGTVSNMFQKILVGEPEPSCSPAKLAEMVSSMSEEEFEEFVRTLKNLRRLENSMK

Substance “charybdotoxin (from UniProt P13487 23-59) (peptide)” gave a Kd of 400 µM.
